Laboratory results from article PMC3315512, “The Lid Domain of Caenorhabditis elegans Hsc70 Influences ATP Turnover, Cofactor Binding and Protein Folding Activity” (PLoS ONE, 2012).
Each block holds one binder with its values, some of them ahead of it.

Columns and labels:
[1] = biological target: T1, His6-CeHsc70 (Caenorhabditis elegans Hsc70, HSP-1) (C. elegans, UniProt P09446 1-640); assay: cell-based or functional assay
[2] = biological target: the molecule itself; assay: AUC; sedimentation velocity with fluorescence detection, 300 nM *DNJ-13 alone, 20°C, 42 000 rpm; whole boundary fitting and C(s) (UltraScan)
[3] = biological target: T1, His6-CeHsc70 (Caenorhabditis elegans …); assay: AUC; competition: 15 µM BAG-1 added to 300 nM *DNJ-13, 3 µM CeHsc70 and 4 mM ATP; sedimentation velocity with fluorescence detection; dc/dt analysis; details: both partners purified

T1 sequence (P09446 whole entry): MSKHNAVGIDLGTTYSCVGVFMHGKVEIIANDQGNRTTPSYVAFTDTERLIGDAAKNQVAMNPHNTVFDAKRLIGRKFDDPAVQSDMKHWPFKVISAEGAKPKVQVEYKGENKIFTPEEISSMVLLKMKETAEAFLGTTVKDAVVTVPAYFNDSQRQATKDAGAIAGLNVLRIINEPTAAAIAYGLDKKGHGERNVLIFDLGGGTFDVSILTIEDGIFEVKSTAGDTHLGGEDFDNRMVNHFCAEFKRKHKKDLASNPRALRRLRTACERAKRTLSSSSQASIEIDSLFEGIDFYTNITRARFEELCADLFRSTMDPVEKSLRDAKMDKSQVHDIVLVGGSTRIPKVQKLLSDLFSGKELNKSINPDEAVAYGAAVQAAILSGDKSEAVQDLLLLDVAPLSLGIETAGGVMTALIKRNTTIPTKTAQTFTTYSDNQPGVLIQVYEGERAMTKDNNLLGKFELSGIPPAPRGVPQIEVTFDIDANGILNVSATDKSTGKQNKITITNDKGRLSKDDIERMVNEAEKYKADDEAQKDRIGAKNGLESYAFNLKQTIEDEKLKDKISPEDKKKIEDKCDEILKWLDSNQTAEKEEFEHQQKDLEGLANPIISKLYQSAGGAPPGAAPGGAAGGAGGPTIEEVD

apparent KD of DNJ-13 from titration of the steady-state ATPase activity of 1 µM CeHsc70 in the presence of 2 µM BAG-1, standard buffer, 25°C [1]: 6.8 µM
B1: DNJ-13 (C. elegans, unlabelled) (natural protein)
chain: not shown

B2: *DNJ-13 (C. elegans DNJ-13 labelled with carboxyfluorescein) (natural protein)
chain: not shown
modifications: 5-(and-6)-carboxyfluorescein succinimidylester, preferential labeling at the N-terminal amine group (labelling efficiency 1.2)
notes: DNJ-13, Hsp40-like J-domain protein of C. elegans (Sis1 / DNAJB homolog); also called fluorescently labeled DNJ-13; source: E. coli BL21-CodonPlus (DE3)-RIL, purified (HisTrap, ResourceS, Superdex 75), then labelled
stoichiometry N [2]: 2

binding result [3]: binds
B3: BAG-1 (C. elegans, unlabelled) (natural protein, UniProt O44739 1-210, looked up)
chain: MKVNVSCSSVQTTIDILEENQGEDESILTLGQLRDRIATDNDVDVETMKLLHRGKFLQGADDVSLSTLNFKENDKIIVMGGKNALVDDAGFKMLMQYEKHNLSNLQKAYDLNLRDVADLERGFLEKPKQVEMGKKLEKKVKYFNEEAERHLETLDGMNIITETTPENQAKRNREKRKTLVNGIQTLLNQNDALLRRLQEYQSVLNGDIPE
notes: BAG-1, nucleotide exchange factor of C. elegans, full-length, cloned from a C. elegans cDNA preparation; a His tag is surmised from the HisTrap column; also called nematodal BAG-1; source: E. coli BL21-CodonPlus (DE3)-RIL, purified (HisTrap, ResourceQ, Superdex 75)
